Assay results taken from publication PMC4482762.

Target: endogenous 14-3-3ε (UniProt P62258)
Assay: GFP-Trap of YFP-R6, Western blot
Settings: reference: YFP-R6 wild type; sites S74

With “PPP1R3D (R6) (from UniProt O95685) YFP-R6 S74A” the “binding against the reference” value was “lost”.
